125 sequences from the supplement of paper PMC9112550, “Optimization of the antimicrobial peptide Bac7 by deep mutational scanning” (BMC Biology, 2022) can be followed below.
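Note: peptides expressed intracellularly from a pBAD plasmid library in pooled LB shake-flask culture, induced with 0.3% L-arabinose, DNA abundance read by NGS, three biological replicates, DESeq2 with apeglm shrinkage.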

This data set has as its system Escherichia coli TOP10. As to the kind of experiment: shrunken log2 fold change of peptide-encoding DNA abundance (4.5 h post-induction vs induction); higher = less antimicrobial activity (less host growth inhibition). The conditions noted are these: time post-induction: 4.5 h; library: site-saturation at positions 5, 18, 19, 20.
Regarding RRIRTRPPRLPRPRPRPQDKPRP, the “shrunken log2 fold change” value was -0.658. Consider RRIRTRPPRLPRPRPRPLGEPRP, for which the “shrunken log2 fold change” value is 0.0248. As for RRIRTRPPRLPRPRPRPYKDPRP, the figure is -0.308; as for RRIRARPPRLPRPRPRPTHFPRP, 0.809.

In the case of RRIRQRPPRLPRPRPRPQVAPRP, the “shrunken log2 fold change” value was -0.156. The result for RRIRRRPPRLPRPRPRPIFSPRP reads 1.06.

For RRIRCRPPRLPRPRPRPFMHPRP, the “shrunken log2 fold change” value is -1.01. The result for RRIRSRPPRLPRPRPRPDNRPRP reads -0.00987; that for RRIRCRPPRLPRPRPRPKNYPRP, -0.676. On to RRIRYRPPRLPRPRPRPDKSPRP, for which the “shrunken log2 fold change” value is -1.15.

Regarding RRIRVRPPRLPRPRPRPWQMPRP, the “shrunken log2 fold change” value was -0.00669.

On to RRIRCRPPRLPRPRPRPANNPRP, for which the “shrunken log2 fold change” value is -0.409. As for RRIRRRPPRLPRPRPRPPFHPRP, the “shrunken log2 fold change” value was found to be 0.321.

As to RRIRMRPPRLPRPRPRPLLQPRP, the “shrunken log2 fold change” value was determined as 0.616.

Take RRIRPRPPRLPRPRPRPAIPPRP: the “shrunken log2 fold change” value is -0.0146. As to RRIRHRPPRLPRPRPRPCNIPRP, the “shrunken log2 fold change” value was -0.236.

Regarding RRIRVRPPRLPRPRPRPLSDPRP, the “shrunken log2 fold change” value worked out at 0.0263. The result for RRIRTRPPRLPRPRPRPVDNPRP reads -0.0554; that for RRIRDRPPRLPRPRPRPEEDPRP, 0.012; that for RRIRARPPRLPRPRPRPSLCPRP, 0.276. On to RRIRNRPPRLPRPRPRPKRIPRP, for which the “shrunken log2 fold change” value is -0.107. On to RRIRCRPPRLPRPRPRPNHRPRP, for which the “shrunken log2 fold change” value is -0.233. For the sequence RRIRFRPPRLPRPRPRPHFRPRP, the “shrunken log2 fold change” value is -0.634.

Take RRIRRRPPRLPRPRPRPVFQPRP: the “shrunken log2 fold change” value came out at 0.00379.

Take RRIRFRPPRLPRPRPRPWNVPRP: the “shrunken log2 fold change” value is -0.157. As for RRIRLRPPRLPRPRPRPPAIPRP, the “shrunken log2 fold change” value stood at 2.54. Take RRIRYRPPRLPRPRPRPNSHPRP: the “shrunken log2 fold change” value is -0.839. RRIRVRPPRLPRPRPRPLQYPRP: the “shrunken log2 fold change” value was 1.72.

Regarding RRIRWRPPRLPRPRPRPVHFPRP, the “shrunken log2 fold change” value is -0.0407. On to RRIRLRPPRLPRPRPRPRGMPRP, for which the “shrunken log2 fold change” value came out at 0.239.

With RRIRGRPPRLPRPRPRPGREPRP, the “shrunken log2 fold change” value came to 0.217.

Consider RRIRKRPPRLPRPRPRPKYGPRP, for which the “shrunken log2 fold change” value is -0.206.

Turning to RRIRWRPPRLPRPRPRPNLMPRP, the “shrunken log2 fold change” value was -0.227. The result for RRIRMRPPRLPRPRPRPNEFPRP reads 0.0287; that for RRIRCRPPRLPRPRPRPAQVPRP, -0.053. As for RRIRWRPPRLPRPRPRPWIVPRP, the figure is -0.337; as for RRIRTRPPRLPRPRPRPLCTPRP, -0.106. Turning to RRIRRRPPRLPRPRPRPILEPRP, the “shrunken log2 fold change” value is 0.0696. For RRIRMRPPRLPRPRPRPAASPRP, the “shrunken log2 fold change” value was 1.25. As for RRIRLRPPRLPRPRPRPTHHPRP, the figure is 0.239; as for RRIRDRPPRLPRPRPRPGKQPRP, -0.0597; as for RRIRKRPPRLPRPRPRPRKTPRP, 0.303. The result for RRIRCRPPRLPRPRPRPGIHPRP reads -0.405; that for RRIRIRPPRLPRPRPRPKESPRP, -0.258; that for RRIRPRPPRLPRPRPRPVYVPRP, -0.167. As for RRIRTRPPRLPRPRPRPRKRPRP, the figure is 0.152; as for RRIRNRPPRLPRPRPRPVLEPRP, 0.183; as for RRIRTRPPRLPRPRPRPYSHPRP, -0.04. Consider RRIRSRPPRLPRPRPRPLDSPRP, for which the “shrunken log2 fold change” value was -0.0139. As for RRIRVRPPRLPRPRPRPCNEPRP, the figure is -0.0213; as for RRIRPRPPRLPRPRPRPREEPRP, 0.111. For the sequence RRIRFRPPRLPRPRPRPRKPPRP, the “shrunken log2 fold change” value came to 0.428. The result for RRIRDRPPRLPRPRPRPNKQPRP reads -0.0169; that for RRIRRRPPRLPRPRPRPCHEPRP, -0.0891. The result for RRIRDRPPRLPRPRPRPYHTPRP reads -0.403; that for RRIRRRPPRLPRPRPRPCCHPRP, -0.345; that for RRIRNRPPRLPRPRPRPQMEPRP, -0.191. The result for RRIRVRPPRLPRPRPRPCSSPRP reads -0.201. For RRIRERPPRLPRPRPRPMPYPRP, the “shrunken log2 fold change” value is -0.0164.

Regarding RRIRQRPPRLPRPRPRPQGDPRP, the “shrunken log2 fold change” value was -0.00865. As for RRIRLRPPRLPRPRPRPQQWPRP, the figure is -0.0673. For RRIRGRPPRLPRPRPRPETSPRP, the “shrunken log2 fold change” value was determined as 1.68. The result for RRIRVRPPRLPRPRPRPFYYPRP reads -0.556; that for RRIRQRPPRLPRPRPRPICKPRP, -0.00411.

Take RRIRARPPRLPRPRPRPGHAPRP: the “shrunken log2 fold change” value came to 0.16. As for RRIRTRPPRLPRPRPRPETDPRP, the figure is -0.0144; as for RRIRMRPPRLPRPRPRPRCEPRP, 0.704. The result for RRIRYRPPRLPRPRPRPAYMPRP reads -0.396; that for RRIRYRPPRLPRPRPRPTSAPRP, 0.0113. The result for RRIRRRPPRLPRPRPRPHGYPRP reads 0.0169; that for RRIRKRPPRLPRPRPRPRKGPRP, -0.0408; that for RRIRNRPPRLPRPRPRPHSDPRP, 0.0373.

As for RRIRQRPPRLPRPRPRPDQVPRP, the “shrunken log2 fold change” value is -0.00133. Consider RRIRVRPPRLPRPRPRPFCIPRP, for which the “shrunken log2 fold change” value is -0.447.

RRIRCRPPRLPRPRPRPMENPRP: the “shrunken log2 fold change” value is 0.0267.

With RRIRNRPPRLPRPRPRPMNDPRP, the “shrunken log2 fold change” value came out at 0.42. The result for RRIRKRPPRLPRPRPRPGAFPRP reads 0.369; that for RRIRRRPPRLPRPRPRPMYNPRP, -0.137. Regarding RRIRWRPPRLPRPRPRPGNLPRP, the “shrunken log2 fold change” value was -0.00261. The result for RRIRFRPPRLPRPRPRPPNYPRP reads -0.023. As for RRIRVRPPRLPRPRPRPNCLPRP, the figure is -0.105. As to RRIRSRPPRLPRPRPRPQDLPRP, the “shrunken log2 fold change” value was -0.0949.

With RRIRSRPPRLPRPRPRPVQVPRP, the “shrunken log2 fold change” value amounted to 0.159. The result for RRIRDRPPRLPRPRPRPNALPRP reads -0.0157. The result for RRIRVRPPRLPRPRPRPAMIPRP reads -0.07; that for RRIRIRPPRLPRPRPRPENGPRP, -0.219.

Consider RRIRMRPPRLPRPRPRPPASPRP, for which the “shrunken log2 fold change” value is 1.65. The result for RRIRRRPPRLPRPRPRPLAGPRP reads 0.477; that for RRIRWRPPRLPRPRPRPGDNPRP, 0.106; that for RRIRFRPPRLPRPRPRPQGYPRP, -0.249. As for RRIRYRPPRLPRPRPRPWPTPRP, the figure is -0.426; as for RRIRQRPPRLPRPRPRPMHAPRP, 0.254; as for RRIRIRPPRLPRPRPRPLYCPRP, -0.744. In the case of RRIRLRPPRLPRPRPRPSWDPRP, the “shrunken log2 fold change” value was -0.0231. The result for RRIRMRPPRLPRPRPRPHCWPRP reads -0.207; that for RRIRPRPPRLPRPRPRPICFPRP, -0.189. Take RRIRQRPPRLPRPRPRPCNSPRP: the “shrunken log2 fold change” value was -0.0261. The result for RRIRIRPPRLPRPRPRPNDIPRP reads -1.11; that for RRIRHRPPRLPRPRPRPAPRPRP, 0.749. The result for RRIRLRPPRLPRPRPRPEMLPRP reads -0.108; that for RRIRVRPPRLPRPRPRPGNFPRP, -0.131.

RRIRARPPRLPRPRPRPPNCPRP: the “shrunken log2 fold change” value was found to be 0.354. As for RRIRFRPPRLPRPRPRPRQRPRP, the figure is 0.346; as for RRIRWRPPRLPRPRPRPNFQPRP, 0.0517; as for RRIRHRPPRLPRPRPRPEMHPRP, 0.0592.

On to RRIRSRPPRLPRPRPRPMTFPRP, for which the “shrunken log2 fold change” value is -0.202.

With RRIRMRPPRLPRPRPRPLIGPRP, the “shrunken log2 fold change” value is -0.0325. The result for RRIRHRPPRLPRPRPRPHFQPRP reads 0.0598. As for RRIRPRPPRLPRPRPRPDELPRP, the figure is -0.0607; as for RRIRTRPPRLPRPRPRPSYLPRP, -0.416.

As to RRIRYRPPRLPRPRPRPWQHPRP, the “shrunken log2 fold change” value is -0.185.

Take RRIRFRPPRLPRPRPRPYDEPRP: the “shrunken log2 fold change” value is -0.526. The result for RRIRFRPPRLPRPRPRPCVPPRP reads -0.835; that for RRIRHRPPRLPRPRPRPISWPRP, -0.245.

Regarding RRIRSRPPRLPRPRPRPSMQPRP, the “shrunken log2 fold change” value was -0.242. Turning to RRIRHRPPRLPRPRPRPNPWPRP, the “shrunken log2 fold change” value is -0.248.

Consider RRIRDRPPRLPRPRPRPRCPPRP, for which the “shrunken log2 fold change” value was determined as 0.131. For RRIRHRPPRLPRPRPRPMDQPRP, the “shrunken log2 fold change” value was -0.0412. For RRIRRRPPRLPRPRPRPHMYPRP, the “shrunken log2 fold change” value was -0.272. For the sequence RRIRWRPPRLPRPRPRPFCAPRP, the “shrunken log2 fold change” value was determined as 0.23. As to RRIRHRPPRLPRPRPRPELHPRP, the “shrunken log2 fold change” value is 0.00184. On to RRIRERPPRLPRPRPRPATLPRP, for which the “shrunken log2 fold change” value was -0.274.

For the sequence RRIRTRPPRLPRPRPRPPRDPRP, the “shrunken log2 fold change” value worked out at 0.4. As for RRIRTRPPRLPRPRPRPNFEPRP, the figure is -0.101; as for RRIRARPPRLPRPRPRPILTPRP, 0.0217.
